# Experiment: yeast display, Sf9 membrane polyspecificity reagent, FACS + sequencing; frameworks hold sequencing errors
# Procedure, shortened: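 Galactose-induced (36–48 hours) yeast carrying a synthetic nanobody display library were exposed to 10% biotinylated, detergent-solubilized Sf9 membrane reagent at 4 °C for 1 hour. FACS followed streptavidin microbead enrichment, using low and high (top ~1%) gates for expression (anti-HA) and reagent binding (streptavidin). Colony PCR, MiSeq 2 × 250 sequencing and CDR-length filtering followed. Labels for polyreactivity reflect the gate of origin.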
row,Sequence,polyreactivity (PSR sort gate)
1,QGQLVESGGGLVQAGGSLRLSCAASGSSFRGNALGGYRQAPGKERELVASISYSGGSTYYADSVKGRFTISRDSAKNTVYLQMNSLKPEDTAVYYCAADDSVAYPYSGYQYYRHIYDDWGQGTQVTVSS,low polyreactivity
2,KVQLVESGGGLVQAGGSLRLSCAASGNTFYHYAMGWYRQAPGKERELVAGIRYNGGSTYYADSVKGRFTISRDNAKNTVYLHMKSLKPEDTAVYYCATKGYTGYAYRYGYWGQGTQVTVSS,high polyreactivity
3,QVQLVESGGGLVQAGGSLRLSCAASGSTFLGYDMGWYRQAPGKERELVAAISIGGSTYYADSVKGRFTISRDNAKNTVYLQMNSLKPEDTAVYYCARVTWGHQVIYGLSDYDSWGQGTQVTVSS,low polyreactivity
4,QVQLVESGGGLVQAGGSLRLSCAASGYILRSNAMGWYRQAPGKEREFVAAITYSGGSTYYADSVKGRFTISRDNAKNTVYFQRNSLKPEATAVYSCSKTTRYRRGYGYWGQGTEVTVSS,low polyreactivity
5,QVQLVESGGGLVQAGGSLRLSCAASGRIFDLNAMGWYRQAPGKERELVAAITFSGGDTYADSVKGRFTISRDNAKNTVYLEMYSLKPEDTAVYYCAKDHYGDDTYGTPYDYDYWGQGTQVTVSS,low polyreactivity
6,QVQLVESGGGLVQAGGSLRLSCAASGGIFSGNDMGWYRQAPGKERELVATITSDGSTNYSDSVKGRFTYSRDNAKNTVYLQMNSLKPEDTAVYYCAADGLYWWMYYWGQGTQVTVSS,low polyreactivity
7,QVQLIESGGGLVQAGGSHRLSCAASGRIFAYYAMGWYRQAPGKERELVAGISQRGSRTYYADSVKGRFTISRDNAKNTVYLQMNSLKPEDTAVYYCAARDRRSVTMDYWGQGTQVTVSS,high polyreactivity
8,QVQLVESGGGLVQAGGSLRLSCAASGFIINGNDMGWYRQAPGKERELVAAISSSGGSTYYADSVKGRFTISRDNAKNTVYLQMNSRTPEDSAVYYCARRGKQVSGRYYYWGQGTQVSVSS,high polyreactivity
9,QVQLVESGGGVVQAGGSLRLSCAASGNIFAVYAMGWYREAPGKERELVAAIRKSGATTYYADSVKGRFTISRDNAKNTVYLQIHSLKPEDTAVYYCAARTFKDAGTAYGSWGQGTQVTVSS,high polyreactivity
10,QVQLVESGGGLVQAGGSLRLSCAASGRTFNQYAMGWYRQAPGKERELVAAISRRTGRTYYADSVKGRFTISRDNAKNTVYLQMNSLKPEDTAVYYCNTLYFVGPDYGYDYWGQGTQVTVSS,high polyreactivity
11,QVQLVESGGGLVQAGGSLRLSSAASGGIFSRYGMGSYRQAPGKERELVAAITWSGGRTYYADSVKGRFTISRDNAKNTVYLQMNSLKPEETAVYYCAALETSFSSVGYEYWGQGTQVTVSS,high polyreactivity
12,QVQLVESGGGLVQAGGSLRLSCAASGGIFVRYAMGWYRPAPGKERELVAAISSSGDRTYYADSVKGRFTISRDTAKNTVYLQMNSLKPEDTAVYYCNADRGHDKVDYWGQGTQVTVSS,low polyreactivity
13,QVQLVESGGGLVQAGGSLRLSCAASGRIFDYYAMGWYRQAPGKERELVASISRSGGSTYYADSVKGRFTISRDNAKNTVYLQMNSLKPEDTAVYYCAAVRYITKEFYWGQGTQVTVSS,high polyreactivity
14,QVQLVESGGGLVQAGGSLRLSCAASGSTFPSNAMGWYRQAPGKERELVAALSRGGTTNYADSVKGRFTISRDNAKNTVYLQMNCLKPEDTAVYYCAKVYKLYWYKAYRRDYWGQGTQVTVSS,high polyreactivity
15,QVQLVESGGGLVQAGGSLRLSCAASGSIFTPNAMGWYRQAPGKERELVAAISRSGGSTYYADSVKGRFTISRDNAKNTVYLQMNSLKPEDTAVYYCAVDYRYYYRYTSGEYWGQGTQGTVSS,low polyreactivity
16,QVQLVESGGGLVQAGGSLSLRCAASGRTLDVYAMGWYRQAPGKERELVARITSGGSTNYADSVKGRFTISRDNAKNTVYLQMNSLKPEDTSVYYCNAVVYTRPYTRPRYRYDYWGQGTQVTVSS,high polyreactivity
17,QVQLVESGGGLVQAGVSHRLSCAASGSIYYYYAMGWYRQAPGKESELVAGITTSGGSTYYAESVKVRFTISRDNAKNTVYLQMISLKPEDNAVYYCAAYDYISSTYFLDDYWGQGTQVTVSS,low polyreactivity
18,QVQLVESGGGLVQAGGSLRLSCAASGSTFAVYAMGWSRKAPGKERELVATIRWSAGRTYYADSVKGRFTISRDNAKNTVYLQMNSLKPEDTAVYYCAARTWGQSTYGQGLDYWGQGTQVTVSS,high polyreactivity
19,QVQLVESGGGLVQAGGSLRLSCAASGFTFYYYAMGWYRPAPGKERELVAGITGSGGRTYYADSVKGRFTISRDNAKITVYLQMNSLKPEDTAVYYSNARSLWYDYWGQGTQVTVSS,high polyreactivity
20,QVQLVESGGGLVQAGGSLRLSCAASGRTLHAYTMGWYRQAPGKERELVAAITRGGGNTYYADSVKGRFTISRDNAKNTVYLQMNSLKPEDTAVYYCAKDYGYQGHTRTLYWAYLEYDYWGQGTQVTVSS,low polyreactivity
21,QVQLVESGGGLVQAGGSLRLSCAASGRIFDENAMGWYRQAPGKERELVATISSSGVSTSYADSVKGRFTISRDNAKNTVYLQMNSLKPEDTAVYYCNAGYRRRYKFDYWGQGTQVTVSS,low polyreactivity
22,QVQLVESGGGLVQAGGSLRISCAASGITFDQNAMGWYRQAPGKEREFVGAITRGSSTNYADSVKGRFTISRDNAKNTVYLQMNSLKPEETAVYYCNADGYARFRTYYCRDTREYDYWGQGTQVTVSS,low polyreactivity

row,Sequence,polyreactivity (PSR sort gate)
1,QVQVVESGGGLVQAGGSLRLSCAASGRIFSHNAMGWYRQAPGNEWELVAGISSGGGTTYADSVKGRFTLSRDNAKNTVYLQMNSLKPEDTAVYYCNKQDQPVGRSGYPYGYDYWGQGTQVTVSS,low polyreactivity
2,QVQLVESGGGLVQAGRSLRLSCAASGRIFRSYAMGWYRQAAGKERELVAAINYSGGNTYYADSVKGRFTISRDNAKNTVYLQLNCVKPDDTAVFYCNARGYYYSSRYGYWGQGTQVTVSS,high polyreactivity
3,QVQLVESGGGLVQAGGSLRLSCAASGRTLVPYAMGWYRQAPGKERELVAAINSSGGSTYYADSVKGRFTISRDNAKNTVYLQMNSLKPEDTAVYYCAATRYSKYYWGQGTQVTVSS,high polyreactivity
4,QVQLVESGGRLVQAGGSLRLSCAASGSIFNAYAMGWYRQAPGKEREFVAVITSNGGITYYADSVKGRFTISRDNAKNTVYLQMNSLKPEDTAVYYCAAYEIYYEFDSWGQGTQVTVSS,low polyreactivity
5,QVQLVESGGGLVQAGGSLRLSCAASGRTFKTYAMGWYSQAPGKERELVAAISRDGRTYYADSVKGRFTISRDNAKNTVYLQMNSLKPEDTAVYYCNKRSYRKGDYWGQGTQVTVSS,low polyreactivity
6,QVQLVESGGGLVQAGGSLRLSCAASGSTFRGNAMGWYRQAPGNEREFVAAITVSGGSTYYADSVKGRFTSSRDNAKNTVYLQMISLKPEDTAVYYCAGLTRGRGYDSWGQGTQVTVSS,high polyreactivity
7,QVQLVESGGGLVQAGGSLRLSCAASGSILGRYAMGWYRQAPGKERELVAAITNRGGSTYYADSVNGRFTISRDNAKNTVYLQMNSLKPEDTAVYYCAAPYSAKELYYRMDYWGQGTQVTVSS,high polyreactivity
8,QVQLVESGGGLVQAGGSRRLSCAASGISFGSYVMGWYRQAPGKERELVAAISWSGGSTNYADSVKGRFTISRDNSKNTVYLQMNILKPEDTAVFYCAAEYDVYGYYYWGQGTQVTVSS,high polyreactivity
9,QVQLEESGGGLVQAGGSLRISCAASGFIYRDYDMGWYRQAPGKERELVAAISLSGGSTYYADSVKGRFTISRDNAKNTVYLQMNSLKPEDTAVYYCAAVSAYEGNYWGQGTQVTVSS,high polyreactivity
10,QVQLVESGGGLDQAGGSLRLSCAASGSIFYPYAMRWYRQAPGKERELVAAISSGGGTNYADSVKGRFTISRDNAKNTVYLQMNSLKPEDTEVYYCNARTGTTWQGYEYDYWGQGTQVTVSS,low polyreactivity
11,QVQLVESGGGLVQAGGSLRLSCAASGIIFLTNAMGWYRQAPGTVRELVAAITAIGGSTYYADSVKGRFTISRDNAKNTVYLQMNSLKPEDTAVYYCAADCSYVYYLYDYWGQGTQVTVSS,low polyreactivity
12,QVQLVESGGGLVQAGGSLRLSCAASGGILRGYAMGWYRQAPGKERELVAAISRGGRTNYADSVKGRFTISRDNAKNTVYLQMNSLKPEDTAVYYCTALSAFQVDNYDYWGQGTQVTVSS,high polyreactivity
13,QVQLVESGGGLVQAGGSLRLSCAGSGRTLVLYDRGWSRQAHGKARELVAAITWSGDSTYYADSVKGRFTISRDNAKNTVYLQMNSLKPEDTQVYYCSATYLNAKRGLRDDYWGQGTQVTVSS,low polyreactivity
14,QVQLVESGGGLVQAGGSLRISCAASGFTFRSYSMGWYRQAPGKERELVAAITSTGGRTYYADSVKGRFTISRDNAKNTVYLQMNILNPEDTAVYYWAAGRKHFGPVHFGYWGQGTQVTVSW,high polyreactivity
15,QVQIVESGGGLVQAGVSLRLSCAASGRTSDGYAMGWYRQAPGKESELVAGITEGGGDTYYADSVKGRFTISRDNAKNTVYLQMNSLKPEDTAVYYCNAVEGSRLPYDYWGQGTQVTVSS,low polyreactivity
16,QVQLVESGGGLVQAGGSLRLSCAASGSTFSTNAMGWYRQAPGKERELVAAISRRGGNTYYADSVKGRFTISRDNAKNTVYLQMNSLKPEDTAGYYCAAKYYRFGDPDRYDYWGQGTQVTVSS,high polyreactivity
17,QVQLVESGGGLVQAGGSLRLSSAASVIIFSNNAMGWSRQAPGKERELVAAISRSGGSTYYADSLKGRFTISRDNAKNTVYLQMNSLKPEETAVYYCAARARSRYDSWGQGTQVTVSS,low polyreactivity
18,QVQLVESGGGLVQAGGSLRLSCAASGNIFNTNARGWYRQAPGKDTELVAAISWNTGSTYADSVKGRFTISRDNAKKTVDLPMNSLKPEDTAVYYCAADRSHAYYRKNRVDYWGQGTQVTVSS,low polyreactivity
19,QVQLVESGGGLVQAGGSLRLRSAASGRTFVPYHMGCYRQAPGKERELVADISSGDSTNYTDSVKGRFTISRDNAKNTVYLQMNSLKPEDTAVYFCAADLTYTMDHWGLGTQVTVSS,low polyreactivity
20,QVHLVESGGGLVQAGGSLRLSCAASGSTSNYYVKVWYGQAPGKERELVASISSGGSTNYADSVKGRFSISRDNAKNSVYLQKNSLKPEDTAVYYCARRRFTHRRYRFDFWGQGTQVTVSS,high polyreactivity
21,QVQLVESGGGLVQAGGSLRLSCAASGRTFYYNAMGWYRQAPGKEREMVADINWSGVRTYYADSVKGRFTISRDNAKNTVYLQMNSLKPEDTAAYYCAAERLLYKHYEEDYWGQGTQVTVSS,low polyreactivity
